Test results taken from the nanobody polyreactivity screen of Harvey et al. (2022).

Assay: yeast display, Sf9 membrane polyspecificity reagent, FACS + sequencing; frameworks hold sequencing errors
In short: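 Sorting gates, low and high (top ~1%), were placed on anti-HA fluorescence to track expression and on streptavidin fluorescence to track reagent binding. A clone's polyreactivity label is taken from the gate it came out of. The reagent was 10% biotinylated, detergent-solubilized Sf9 membrane, applied for 1 hour at 4 °C to galactose-induced yeast display cells.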

Sequence	polyreactivity (PSR sort gate)
QVHLVESGGGLVQAGGSLRLSCAASGSIFFTYAMGWYRQAPGKETEWVAAISSGGSPYYADSVKGRFTISRDNANNTVYLQMNSLKPEDTEVYYCAARGYRLVPVDFSYWGQGTQVTVSS	low polyreactivity
QVQLVESGGGLVQAGGSLRLICAASGFTFGYYAMGWYRQAPRKERELVAAISYTGGSTYYADSVKGRFTISRDNAMNTVYLQMNSLKPEDTAVYYCNAYSALYGSYNYWGQGTQVTVSS	high polyreactivity
QVQLVESGGGLVQAGGSLRLSCAASGFTFDKNTMGWYRQAPGKERELVAAITRGGGSTYYADSVKGRFTISRDNAKNTVYLQMNSLKPEDTAVYYCAARYWTKRYRLLDYWGQGTQVTVSS	high polyreactivity
QVQLVESAGGLVQAGGSLRLSCAASGSISAGNAMGWNRQAPGKERELVAAISGSGGSTYYADSVKGRFTISRYNAKNSVDLQMKSLKPEDTAVYYCAARGGYRLRYIPYVRYDYWGEGTQVTVSS	high polyreactivity
QVQLVESGGGLVQAGGSLRLRCAASGSIFFFYAMGWYSQARGKEREFVAGITYSGGITYYADSVKGRFTISRDNAKNTDYLQMNSLKPEDTAVYFCDYGGGVYQYGYWGQGTQVTVSS	low polyreactivity
QVQLVESGGGLVQAGGSLRLSCAASGFIFLPYAMGWYRQAPGKERELVAAITRGGRTYYADSVKGRFTISRDNAKNTVYLQMNSLKPEDTAVYYCAATTYLVWGYNYWGQGTQVTVSS	low polyreactivity
QLQLVESGGALVQAGGSLRLSCAASGSTFTVNGMGWYRQAPGKERELVAAIDGGDGSTYYADSVKGRFTISRDNAKNTVYLQMNSLKPEDTAVYYCAADPPGFTQYGYWGQGTKVTVSS	low polyreactivity
QVQLVESGGGLVQAGGSLRLSCAASGSIFSSYAMGWYRQAPGKERELVAAISTAGSTNYADSVKGRFTISRDNAKNTVYLQINSLKPEDTAVYYCAADSGDQQSYGLDLNHDFDYWGQGSQVTVSS	low polyreactivity
QVQLVESGGGLVQAGGSLRLSCAASGSIFNKYAMGWYRQAPGKERELVAAISVSGTRTYYADSVKGRFTISRDNAKNTVYLQMNSLKPEDSAVYYCATKFFRTAYEYWGQGTQVTVSS	high polyreactivity
QVHLVESGGGLVKAGGSLRLSCAASGRIFDNYVMGWYRQAPGKERELVAAISSGGGTYYADSVKGRFTISLDNAKNTVYLQMNSLKPEDTAVYYCAAAAYYADFDYWGQGTQVTVSS	low polyreactivity
QVQLEESGGGLVQAGGSLRLSCAASGSIFQINAMGWYRQAPGKERELVAAITRGGGTTYYADSVKGRFTISRDNAKNTVYLQMNSLKPEDTAVYYCAADFERRRYDYWGQGTQVTVSS	low polyreactivity
QVQLVESGGGLVQAGGSLRLSCAASGSIFRTYAMGWYRQAPGKEWELVAAISGSGSRTYYADSVKGRFTISRDNAKNTVYLQMNSLKPEDTAVYYCAAQTFAYKVFFLYDYWGQGTQVTVSS	low polyreactivity
QVQLVESGGGLVQAGGSLRLSCAASGSTFTGYTMGWYRQAPGKERELVAAISRRGTSTYYADSVKGRFTISRDNAKNTVYLQMNSLKPEDTAVYYCAAYQGQKGYDYWGQGTQVTVSS	high polyreactivity
HVQLVESGGGLVQAGGSLRLSCAASGRTLYNNAMGWYRQAPGKERELVAAISSRGGSTRYADSVKGRFTISRDNAKNTVYLQMNSLKPEDTAVYSGAKRSINRDGDYWGQGTQVTVSS	high polyreactivity
QVHLVESGGGLVQAGGSLRLSFAASGLIFFVYAMGWYRQAPGIERELVAGIRSSGGSTYYADSVKGRFTISRDNAKNTVYLQMNSLKPEDTAVYYCAARYRYGWAYRKGGDYWGQGTKVTVSS	high polyreactivity
QVQLVESGGGLVQAGGSLRLSCAASGGILPKYAMGWYRQAPGKERELVAAIDGGGDSTYYADSVKGRFTISRDNAKNTVYLQMNSLKPEDTAVFYCAAYQWTGYYLEYDYWGQGTQVTVSS	low polyreactivity
QVQLVESGGGLVQAGGSLRISCAASGIIFRLNAMGWYRQAPGKERELVAAIRRRGGSTYYADSVKGRFTISRDNAKNTVYLQMNSLKPEDTAVYYCAKDPHGSDFGYWGQGTQVTVSS	low polyreactivity
QVQLVESGGGLVQAGGSLRLSCAASGSTYAYYAMGWYRQATGKERELVAAISLSSGCTYYADSVKGRFTISRDKAKNTVYLQMNSLKPEDTAVYYCAADFASDSSRYEYWGQGTQVTVSS	low polyreactivity
QVQLVESGGGLVQAGGSLRLSCAASGSTFNRYAMGWYRQAPGKERELVASITTSDSTNYADSVNGRFTISRDNANNTVFLQINSLNPEDTAVYYCNAEVRGVWYTYDYWGQGTHVTVSS	low polyreactivity
QVQLVESGGGLVQAGGSLRLSCAASGSTFGYYAMGWYRPAPGKERELVAAINVSGGRTYYADSVKGRFTISRDNAKNTVYLQMNSLKPEDTAVYYCAAQRPEYRAGRYNYWGQGTQVTVSS	high polyreactivity
QVQLVESGGGLVQAGGSLRLSCAASGSIIRGYTMGWYRQAPGKERELVADITQSTGSTYYADSVKGRFTISRDTAKNTVYFQMNSLKPEDTAVYYCAAVEGWYLFTSNYWGQGTQVNVSS	low polyreactivity
QVQLVESGGGLVQAGGSLRLSCAASGIIFRLYAMGWYRQAPGKERELVAAITSRGGSTYYADSVKGRFTISRDNAKKTVYLQMNSLKPEDTAVYYCAARPVYSGYDYWGQGTQVTVSS	high polyreactivity

Sequence	polyreactivity (PSR sort gate)
QVQLVESGGGLVQAGGSLSISCASSGRNFGANAMGLYRQAPGKERELVAVITGGGGTYYADSVKGRFTISRDNAKNTVYLQMNSLKPEDTAVYYCDWPRYYYTYPSHPMDYWGQGTQVTVSS	low polyreactivity
QVQLVESGGGLVQAGGSLRLSCAASGRIFYIYAMGWYRQEPGKERELVAAISRRAASTYYADSVKGRFTISRDNAKNTVYLQMNSLKPEDTAVYYCAADYYDRKVEYYYWGQGTQVTVSS	high polyreactivity
QVQLEESGGGLVQAGGSLRLSCAASGFILEYYAMGWSRQATGKETELVSTISSGGSTNYADSVKGRFTISSDNAKNTVYFQMNRLKPEDTAVFYCAAARYTLSRYYYWGQGTQLTVSS	high polyreactivity
QVQLVESGGGLVQAGGSLRLSCADSGYIFYPYTMGWYRQAPGKEMELDAAITWSGSTYYADSVKGRFTISRDNAKNTVYLQMNSLKPEDTAVYYCAADFDSYDSYTYLQYDYWGQGTQVTVSS	low polyreactivity
QVQLVESGGGLVQAGGSLRLSCAASGRIFTVNAMGWYRQAPGKESELVASIRYRGSSTYYADSVKGRFTISRDNAKNTVYLQMNSLKPEDTAVYYCAAVVRQYRPPGLYDYWGQGTQVTVSS	high polyreactivity
QVQLVESGGGLVQAGGSLRLSCAASGYTFPLYAMGWYRQAPGTERELVADINIGGASTYYADSVKGRFTISRDNAKNTVYLQMNSLKPEDTAVYYCAADYTVRVVATYDYWGQGTQVTVSS	low polyreactivity
QVQLVESGGGLVQAGGSLRVSCAASGFTFSDYAMGWYRQAPGKESELVAGISSGGSTNYADSVKGLFTISRDNAKNTVYLQMNSLKPDDTAVYYCAADLYATWSYFFTWLDYWGQGTQVTVSS	high polyreactivity
QVQLVESGGGLVQAGGSLRLSCAASGRIFDYYTMGWYRQAPGKERELVAAINWSGGSTYYADSVKGRITISRDKAKNTVYLQMNSLKPEDTAVYYCATLSYGREYGYWGQGTQVTVSS	low polyreactivity
QVQLVESGGGLVQAGGSLRLSCAASGIIFASYAMGWYRPAPGKERELVATISRTGGSTRYADSVKGRFTISRDNAKNTVYLQMNSLKPEDTAVYYCAARNPAYDRRYGYWGQGTQVTVSS	high polyreactivity
QVQIVESGGGLVQAGGSLRLRCAASGSIFSTYAMGWYRQEPGKERELVADISGRVGSTYYADSVKGRFTISRDNAKNTVYLQMNSLKPEDTAVYYCAAALDFWPGYEYYYWGQGTQVTVSS	low polyreactivity
QVQLVESGGGLVQAGGSLRLSCAASGSTDSNAMGWYRQAPGKERELVAAISGTGSRTYYADSVKGRFTISRDNAKNTVYLQMNSLKPEDTAVYYCAAYSGYYRPRYNYWGQGTQVTVSS	high polyreactivity
QVQLVESGGGLVQAGGSLRLSCAASGSIFIQYDMGWYRQAPGKERELVATIRSCDSTTYADSVKGRFTISRDNAKNTVFLQVNSLKPEDTAVYYCAKDYRFDYDYDYWGQGTQVTVSS	low polyreactivity
QVQLVESGGGLVQAGGSLRLSCAASGSTFRVYGMGWYRQAPGKERELDAAIRWIGGRTYYADSVKGRFTISRDNAKNTVYLQMNSLKAEDTAVYYCNARAGPVRFDYWGQGTQVTVSS	low polyreactivity
HVQLVDSSGRVVQARCSLRLSCAASGSTFHDNAMGWYRQAPGKDRDLEAAISSGGRTNYADSVKGRFTISRDNAKNTVYLQMNCLKPEDTAVYYCAASFRRWYFYARHDYGYWGLGTQVTVSS	low polyreactivity
QVQLVESGVGLVQAGGSLRLSCAASGSTFNYYAMGWYRQAPGKERELVAAISSRSSRTFYADSVKGRFTISRDNAKNTVYLQMHSVKPEDTAVYYCAVKKSAPDGDYWGQGTQVTVSS	high polyreactivity
QVQLVESGGGLVQAGGSLRLSCAASGFTLHSYAMGWYRQAPGKERELVAAITTGGSTYYADSVKGRFTISRDNAKNTVYLQMNSLKPEDTAVYYCAADVPGNYRKYRYGRASSHDYWGQGTQVTVSS	low polyreactivity
QVHLVESGGGLVQAGGSLRLSCAASGLIFYRYAMGWYRQAPGKERELVATISSGGSTNYADSVKGRFTISRDNAKNTVYLQMNSLKPEDTAVYYCAASRWLYYYLFEYWGQGTQGTVSS	high polyreactivity
QVQLLESGRGLDQAGGSLRLSCAASGGTYKTNPMGMYRQAPGKEMELVAAITGSGTSTYYADSVKGRFTISRDYAKNTVYLQMNSLNPEDTAVYYCAADKLYHPGIGDDYWGQGTQETVSS	low polyreactivity
QVQLVESGGGLVQAGVSLRLSCAASGRILHGYAMGWYRQAPGKEREFVAAITSSGGRTYYADSVKGRFTISRDNAKNTVYLQMNSLKPDDTAVYYCAADRPAYRTGDSKYDYWGLGTQVTVSS	low polyreactivity
QVQLVESGGGLVQAGGSLRLSCAPSGSIVRGYAMAWYRQAPGKERELVAAINSSGTRTYYADSVKGRFTISRDNAKNTVYFQLYSLKPEDSAVYYCAARAVSEYFVVPFYYWGQGTQVTVSS	high polyreactivity
QVQLLESGGGLLQAGGSLRLSCAASGITLIGNAMGWYRQAPGKESELVAAISKSGGNTFYAVSVKGRFTISRDNAKNTVYLQMNSLKPEDTAVYYCAADGYYGYYSQYEYLYYYWGQGTQVTVSS	high polyreactivity
